Measurements from publication PMC11697113, “The Hsc70 system maintains the synaptic SNARE protein SNAP-25 in an assembly-competent state and delays its aggregation [image fx2.gif]” (The Journal of Biological Chemistry, 2024).

B1: SNCP peptide of SNAP-25 (LOOP-SNC site) (peptide)
peptide: EREQMAISGGFIRR
notes: also called SNC peptide; LOOP-SNC peptide; source: synthetic peptide
B2: SNNP peptide of SNAP-25 (peptide)
peptide: RRMLQLVEESK
notes: also called SNN peptide; source: synthetic peptide

Biological target: T1, heat shock cognate 70 (Hsc70), human constitutively expressed Hsp70, wild type (human, UniProt P11142 1-646)
T1 construct: Hsc70, the human constitutively expressed Hsp70; also called WT Hsc70; His-Hsc70 (before cleavage); source: E. coli Rosetta (DE3), purified (Ni-NTA, TEV cleavage, second Ni-NTA)
T1 sequence (P11142 whole entry): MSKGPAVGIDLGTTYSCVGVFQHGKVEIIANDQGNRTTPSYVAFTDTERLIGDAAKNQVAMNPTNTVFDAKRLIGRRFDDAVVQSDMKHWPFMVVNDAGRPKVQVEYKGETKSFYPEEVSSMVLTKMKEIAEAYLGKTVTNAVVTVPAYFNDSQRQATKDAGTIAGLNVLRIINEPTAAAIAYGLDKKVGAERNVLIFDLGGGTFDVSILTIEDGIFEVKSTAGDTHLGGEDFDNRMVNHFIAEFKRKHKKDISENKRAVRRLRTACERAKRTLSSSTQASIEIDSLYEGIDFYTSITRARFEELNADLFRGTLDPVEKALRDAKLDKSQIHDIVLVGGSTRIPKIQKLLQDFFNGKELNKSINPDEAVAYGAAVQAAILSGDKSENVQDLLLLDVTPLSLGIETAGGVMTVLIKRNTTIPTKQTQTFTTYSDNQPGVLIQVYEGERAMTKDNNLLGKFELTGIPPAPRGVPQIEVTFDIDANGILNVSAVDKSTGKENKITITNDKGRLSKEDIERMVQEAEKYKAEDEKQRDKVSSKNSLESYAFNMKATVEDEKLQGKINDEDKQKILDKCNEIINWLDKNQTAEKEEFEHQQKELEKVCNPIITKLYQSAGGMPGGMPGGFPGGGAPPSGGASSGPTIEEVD
Test: NMR titration; methyl-TROSY (1H-13C HMQC) spectra of Ile δ1-13CH3-labeled Hsc70 (40 μM) without and with unlabeled peptide; 10 mM potassium phosphate pD 7.4, 5 mM DTT, D2O, 25 °C, 600 MHz
Details: both partners purified

Row | Binder | binding result
1 | B1 | binds
2 | B2 | binds
